Reference: the Human Domainome abundance scans (Beltran et al. 2025)

B1: Endonuclease CUE2, residues 9 to 47; numbered along this chain, P36075 (parent)
chain: HESKLSILMDMFPAISKSKLQVHLLENNNDLDLTIGLLL
B2: Membrane-associated guanylate kinase, WW and PDZ domain-containing protein 2, residues 601 to 682; numbered along this chain, Q86UL8 (parent)
chain: AELMTLTIVKGAQGFGFTIADSPTGQRVKQILDIQGCPGLCEGDLIVEINQQNVQNLSHTEVVDILKDCPIGSETSLIIHRG

Variants of: B1
Experiment: abundance fitness (aPCA) (normalised: wild type 0, dead -1); higher = more abundant; growth selection in yeast, the domain comes from the species named
Conditions: Saccharomyces cerevisiae (strain ATCC 204508 / S288c)

Abundance fitness, by site and new letter:
G36: S 0.092; W -0.452; K 0.076; V -0.383; L -0.438; M -0.291; P -0.056; Y -0.447; T 0.021; N -0.054; Q 0.004
L38: D -0.1; N -0.471; C -0.116; A -0.375; S -0.768; P -0.497; M -0.054; G -0.557; K -0.983; V -0.27; W -1.02; Q -0.664; E -0.568; R -0.792; T -0.628
L39: P -0.199; N 0.081; W -0.066; Q 0.132; F -0.084; H -0.062; S 0.1; M 0.167; R 0.276; T 0.122; I -0.182; K 0.33; V -0.046; E 0.154; G 0.122
L37: S 0.026; N -0.003; K 0.045; H -0.034; E 0.001; M -0.042; V -0.054; A 0.055; D -0.049; C 0.06; R 0.081; G -0.014; T 0.098; W -0.128; P -0.099; Y 0.007; Q -0.016

Variants of: B2
Experiment: as above
Conditions: Homo sapiens

Abundance fitness, by site and new letter:
V9: P -0.135; N -0.207; D -0.184; Y -0.039; C -0.12; H -0.222; G -0.077; Q -0.071; W -0.072; L -0.139; I -0.087; S -0.102; F -0.044; T -0.011; K -0.128; A -0.082; E -0.088; R -0.052; M 0.003
G11: M -0.095; E -0.118; Y -0.124; F -0.114; N 0.017; S -0.023; L -0.104; W -0.223; I -0.116; R -0.094; D 0.01; Q -0.119; P 0.03; C -0.146; V 0.027; T -0.015; A 0.018; H -0.142; K -0.09
T5: W -0.208; P -0.033; A -0.098; F -0.217; K -0.024; N 0.03; V -0.088; S 0.02; Q -0.088; D -0.024; I -0.169; Y -0.159; M 0.029; C -0.142; E -0.092; R -0.167; H -0.139; L -0.101; G -0.121
A1: F -0.589; V 0.093; C -0.015; D -0.198; R 0.216; E -0.024; W -0.397; G -0.113
L3: E 0.038; P -0.2; C -0.095; Q 0.014; F 0.016; T 0.015; S -0.028; N 0.056; K 0.042; A -0.03; V -0.032; H 0.035; W -0.162; M 0.029; I 0.014; G -0.018; D -0.024
F17: C -0.303; D -1.18; E -0.75; A -0.697
L6: Q -0.083; P -0.204; N -0.166; E -0.193; I 0.008; W -0.147; F 0.003; R -0.123; H 0.007; M -0.059; G -0.315; C 0.038; A -0.124; Y -0.064; D -0.366; V -0.021; S -0.075; K -0.098; T -0.059
E2: M -0.001; A -0.032; F -0.113; Q -0.066; P -0.205; I -0.139; V -0.077; N 0.009; G -0.049; R -0.098; T -0.034; S -0.061; H -0.113; K -0.093; Y -0.094; W -0.214; L -0.131; C -0.039
G14: R -0.093; D 0.07; E -0.016; T -0.02; F -0.21; H -0.03; L -0.105; A -0.152; Y -0.071; C -0.11; I -0.168; N 0.025; M -0.089; Q -0.052
K10: R -0.107; L -0.239; P -0.146; M -0.102; I -0.185; W -0.446; H -0.14; Q -0.123; D -1.29; A -0.108; G -0.125; F -0.372; C -0.192; T -0.182; S -0.143; V -0.073; E -0.662
Q13: M -0.104; C -0.06; D -0.062; S -0.027; F -0.084; T -0.038; V -0.067; E 0.016; R -0.017; P -0.001; I -0.218; Y -0.096; W -0.101; A -0.037; H -0.161; K -0.06; G 0
A12: K -0.036; L -0.05; I -0.137; R -0.029; C -0.044; Q -0.037; Y -0.119; W -0.057; S -0.046; G 0.01; H -0.209; P -0.043; N -0.077; M -0.034; E -0.047; D -0.02; F -0.075
T7: E -0.133; L -0.075; N 0.044; P -0.04; M -0.083; C -0.027; Q -0.085; V -0.126; F -0.017; A -0.008; R -0.052; K 0.002; S -0.103; G -0.168; Y -0.121; I -0.013
F15: P -0.063; L 0.004; M 0.039; V -0.003; G -0.221; Y -0.048; W -0.002; E -0.141; A -0.179; N -0.144; Q -0.062; R -0.266; K -0.322; S -0.143; D -0.118; C -0.111
I8: R -0.397; N -0.282; H -0.113; C -0.008; M -0.053; F 0.046; G -0.084; W -0.063; S -0.059; L 0.036; Q -0.08; V -0.002; Y -0.012; D -1.07; T 0.042; A -0.021; K -0.261; E -0.52; P -0.09
M4: D -0.013; H -0.026; A -0.1; V -0.039; C -0.136; R -0.157; Q -0.092; P -0.081; W -0.102; S -0.097; T -0.014; I -0.061; N -0.063; L -0.078; F 0.058; G -0.118; E -0.106; K -0.002; Y -0.022
G16: C -0.002; Q -0.085; K -0.029; A -0.144; E -0.059; D 0.071; R -0.051; Y -0.155; P -0.006; S -0.027; I -0.268; W -0.045; M -0.007; T -0.048; F -0.101; N 0.018; L -0.014; H -0.044
